Measurements reported in the supplement of paper PMC9170038.

System: MS2 coat protein
Experiment: apparent KD of MS2 coat protein; higher = weaker reporter binding
Conditions: Eterna round: R107
How it was run: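 Illumina sequencing clusters were used for on-chip transcription of designed RNA switches. Titration with SNAP-549-labelled MS2 coat protein followed, in twofold steps from 0.7 or 1.5 nM to 3 µM in 100 mM Tris-HCl pH 7.5, 80 mM KCl, 4 mM MgCl2, without or with constant ligand. Apparent KD is each design's median of fits to normalised cluster binding curves.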

[1] = input ligand: theophylline 20 uM
[2] = input ligand: theophylline 2 mM
[3] = input ligand: tryptophan 2.4 mM

Sequence | apparent KD of MS2 coat protein (input ligand: arginine 13.2 mM) | apparent KD of MS2 coat protein [1] | apparent KD of MS2 coat protein [2] | apparent KD of MS2 coat protein (input ligand: none) | apparent KD of MS2 coat protein [3]
GUAUAUUGAAAACAAUAUACAGUGGGUGAACGAGGACCGGUACGGCCGCCACUCGGACAUGAGGAUCACCCAUGUCCAUGUGAAA [AstrosExyTryA#8] | 15.1 nM | 17.1 nM | 17.7 nM | – | –
GUAUUCAUGACGGCCGCCACUGCAAGCCUCCUCAUGGCAGAUUGACAUGAGGAUCACCCAUGUCUCAGGACCGGGUCUGGCAUCC [theeternabot_sameState_MS2_Trp_B_43] | 65.8 nM | 244 nM | 346 nM | – | –
GUAUUUAUAUGAAGGAGCGUCGAAAAUGGGUAAACAUGAGGAUCACCCAUGUAAAGGGAACGACAGGUAGGUCGCAUAUGGAUAC [AstromonsSSArgB#25] | 111 nM | 251 nM | 279 nM | 160 nM | 239 nM
GUCCAAAGGUCGGCCGCCACUGUAGGAUGUGUUCUUUCACAUGAGGAUCACCCAUGUUGUUAUUAUAGGACCGGGAUUGUAGGAC [39MS split4] | 16.4 nM | 32.2 nM | 21.5 nM | – | –
GUCGGAGUCUGAAGGAGCGACAUGAGGAUCACCCAUGUCUCCCGUUAUGGGAGUUCCUUAGGUCAGGUAGGUCGCAGACUCCGAC [#1 Exclusion - Arginine B Attempt #25 (Inspired by Omei)] | 78.1 nM | 145 nM | 144 nM | 141 nM | 140 nM
GUCGGUACGUCGGCAAAGCCGAUGUGCCAGCGAGGACCGGUACGGCCGCCACUCGUACAUGAGGAUCACCCAUGUCCGGUCCGAC [Omei Trp SS A C v4] | 44.7 nM | 139 nM | 169 nM | 134 nM | 155 nM
GUCUUGGGAUCGGCCGCCACUACAUGAGGAUCACCCAUGUGGACAAAUAGGGUUUUUAAGCUCGGUAGGACCGGGAUUCGGACAU [Marasosoge] | 12.9 nM | 16.7 nM | 16.3 nM | – | –
GUGACUUACGGGCGCCAUUUGUGAUAGGAAGGAGCGGCGAAAUAGCCAGGUAGGUCGCCUAUACAUGAGGAUCACCCAUGUCACC [Veveatonus] | 45.1 nM | 64.9 nM | 84.6 nM | 105 nM | 72.6 nM
GUGCCGCAUUCACAUGAGGAUCACCCAUGUCGAGGACCGGUACGGCCGCCACUCGACGUGCUUACAGGUCCUUUAAGGCCCAAUA [Usislaan] | 79 nM | 200 nM | 221 nM | – | –
GUGCCGCAUUCACAUGAGGAUCACCCAUGUCGAGGACCGGUACGGCCGCCACUCGACGUGCUUACAGGUCCUUUACGGCCCAAUA [Biedxele] | 30.7 nM | 71.3 nM | 36.9 nM | – | –
GUGGGUUUGCGAAGGAGCGGGUAUGUUUUCUACUGGAUCCUAACAUGAGGAUCACCCAUGUCCCAGGUAGGUCGCGCGGGCUUGG [12.Z] | 49.7 nM | 81.9 nM | 209 nM | 215 nM | 56.8 nM
GUUGUAUACUCGGCCGCCACUGAGAGAGUCAUGUAAACAUGAGGAUCACCCAUGUAAUAUAUAUACAGGACCGGGAGUGUGGUAA [4.G] | 9.31 nM | 16 nM | 12 nM | 12.8 nM | 11.8 nM
UAAGCGCGAGGAGACGGAACCAAUCUUGUUCGAGGACCGGUACGGCCGCCACUCGGCGUAAAACAUGAGGAUCACCCAUGUGCAA [theeternabot_exclusion_MS2_Trp_A_18] | 10.8 nM | 15.6 nM | 16.1 nM | 13.2 nM | 16.4 nM
UAAUAAGUACCGGUUCUCAGAUCCUCAUGUCGAGGACCGGUACGGCCGCCACUCGAAACAUGAGGAUCACCCAUGUAAUAAUAAU [#07 Exclusion Tryptophan A] | 23.5 nM | 67.1 nM | 54.5 nM | – | –
UACAGCAGUACGGCCGCCACUCUAAGAUUGCGCGUUUAGGCCAUACAUGAGGAUCACCCAUGUCCGAGGACCGGGUACAGGAAUU [theeternabot_sameState_MS2_Trp_B_29] | 88.3 nM | 416 nM | 502 nM | 185 nM | 89.2 nM
UACAUGAGGAUCACCCAUGUAAGGUGAGAUACCAGUGAUAUGCUACACCCUUGGCAGCUCACGGCUGACUAUCAGCACACAUGUA [Theo A SS t1] | 28.2 nM | 34.4 nM | – | – | 26.8 nM
UACAUGAGGAUCACCCAUGUAUGAAUAGAUACCAGCGAAAAUAAGCGCCCUUGGCAGCUAGUGAAUAAAGGGUGGGUAAAAUAAU [Exclusion Theophyline A GF 2] | 8.3 nM | 13.6 nM | – | – | 9.41 nM
UACAUGAGGAUCACCCAUGUAUGAAUGGAUACCAGAUAAAAUAAGGUCCCUUGGCAGCUAGUGAAUCGAGGGUGGGUAUCAUGUU [#14 Exclusion-TheophyllineA] | 10.9 nM | 13.7 nM | – | – | 9.89 nM
UACUGUCUAACGGCCGCCACUCAGUCUCGGUUGAUUAUCUUAAGUGACAUGAGGAUCACCCAUGUGAGGACCGGGUUGUGCAUAA [theeternabot_exclusion_MS2_Trp_B_40] | 60.4 nM | 91.3 nM | 96.7 nM | – | –

Sequence | apparent KD of MS2 coat protein (input ligand: arginine 13.2 mM) | apparent KD of MS2 coat protein [1] | apparent KD of MS2 coat protein [2] | apparent KD of MS2 coat protein (input ligand: none) | apparent KD of MS2 coat protein [3]
UAUAUAUAUCACUAACUGUUCUUGAGGUCUCGAGGACCGGUACGGCCGCCACUCGUACCGCCUCACAUGAGGAUCACCCAUGUCC [XTryp A #1] | 52.2 nM | 85.5 nM | 97.6 nM | – | –
UAUCCACAUGAGGAUCACCCAUGUAGGGAAGGAGCGGUGGAUGCACCAGGUAGGUCGCCUUGCUGAGGACAGCCGGUGGAUUCGU [Exclusion - Arginine A (Freestyle 27)] | 29 nM | 59.6 nM | 46.7 nM | 31.9 nM | 32.8 nM
UAUCCACAUGAGGAUCACCCAUGUUAGGAAGGAGCGGUGAAUGAACCAGGUAGGUCGCCUAGCUGAGGACUGUCGAUGGAUUCGU [Exclusion - Arginine A (Freestyle 17)] | 13.4 nM | 28.2 nM | 24.5 nM | 18.1 nM | 20.5 nM
UAUCCACAUGAGGAUCACCCAUGUUAGGAAGGAGCGGUGAAUGAACCAGGUAGGUCGCCUAGGUGAGGAUCAUCUAUGGAUUCGU [Exclusion - Arginine A (Freestyle 11)] | 30 nM | 37.3 nM | 38.3 nM | 30.2 nM | 31.7 nM
UAUCGUCAGACGGCCGCCACUAGAACAUGAGGAUCACCCAUGUACGGCCGCUCGGUCCUCAUGACUAGGACCGGGUCUGACGAAU [(Trp1)-(Ms2)-(T)'-(M)'-(Trp2)_Design22] | 10.8 nM | 16.9 nM | 12 nM | 7.31 nM | 9.96 nM
UAUCGUCAGACGGCCGCCACUAGAACAUGAGGAUCACCCAUGUAGGCGGCCGAUUCCUCAUUAACUAGGACCGGGUCUGACGAAU [(Trp1)-(Ms2)-(T)'-(M)'-(Trp2)_Design11] | 11.5 nM | 15.9 nM | 9.76 nM | – | –
UAUUAUCAGUCGGCCGCCACUGACACAUGAGGAUCACCCAUGUAAUUUGGGUUAUAUAGAAAAUACAGGACCGGGACUAAGGCUA [JR_ExcTryptoB_Sub014] | 87.5 nM | 324 nM | 326 nM | – | –
UAUUAUCAGUCGGCCGCCACUGACACAUGAGGAUCACCCAUGUAAUUUGGGUUAUAUAUAAAUUACAGGACCGGGACAAAGGCUA [JR_ExcTryptoB_Sub013] | 114 nM | 318 nM | 396 nM | – | –
UAUUAUCAGUCGGCCGCCACUGACACAUGAGGAUCACCCAUGUAAUUUGGGUUAUAUAUAAAUUACAGGACCGGGACAAAUGCUA [JR_Nu13_ExcTryptoB_Sub025] | 161 nM | 366 nM | 368 nM | – | –
UAUUAUCAGUCGGCCGCCACUGUCACAUGAGGAUCACCCAUGUAACUUGGGUUAUAUUUAAUAUACAGGACCGGGACAAAGGCUA [JR_ExcTryptoB_Sub012] | 61.5 nM | 76.6 nM | 66.8 nM | – | –
UCAAUAAUUAGAUUGUUACAUGUAUCAGAAGGAGCGUGAGUAAUCACAGGUAGGUCGCUGUUAACAUGAGGAUCACCCAUGUUUU [JR_ExcArginiA_Sub009] | 31.2 nM | 43.6 nM | 39.2 nM | 40.9 nM | 36.8 nM
UCACAUGAGGAUCACCCAUGUACAGGCGAUACCAGCCGUACAUUGGGCCCUUGGCAGCGCAUCGAGACCUUUAUAAGCACCUCGG [Ceusbi] | 24.5 nM | 127 nM | – | – | 81.6 nM
UCACAUGAGGAUCACCCAUGUCAUGUUGAAGGAGCGACCAGGAGGUCAGGUAGGUCGCAACACAUGAGGAUCACCCAUGUGGCCC [Qetesh] | 87.5 nM | 119 nM | 159 nM | 172 nM | 149 nM
UCACGAGGCCUGGAUACCAGCGACAUGAGGAUCACCCAUGUAUGAGGAUCAGCCAUGUUAUGCCCUUGGCAGCCACGAAGGUCAU [XZZMULLIN] | 14.5 nM | 26.5 nM | – | – | 15.8 nM
UCAUUUUUCACGGCCGCCACUUCAAGGUCCUGAGGCUGGGCAACACAUGAGGAUCACCCAUGUCGAAGGACCGGGUGAAGCUACC [theeternabot_sameState_MS2_Trp_B_34] | 152 nM | 248 nM | 527 nM | – | –
UCCAUCGGCGGAAGCCGAUGGUUUACAGAAGGAGCGUAGGAAACUACAGGUAGGUCGCUGGACAUGAGGAUCACCCAUGUGUUUU [SSAA #12] | 24.4 nM | 22.4 nM | 30 nM | 26.5 nM | 20.8 nM
UCGCCCGGGUCGGCCGCCACUGAGGUGAUAUGACAUGAGGAUCACCCAUGUUGUCAUGUGGAACAUAGGACCGGGACCCGGGCGA [Exclusion - Tryptophan B Attempt #2 (HarryS)] | 15.7 nM | 47.6 nM | 19.6 nM | 18.5 nM | 17.8 nM
UCGCUCUGGGUGAAUUCCGGAGAUGUGGAAGGAGCGGACGAAAGUCCAGGUAGGUCGCCAUCGAACAUGAGGAUCACCCAUGUAC [Same State - Arginine A (Freestyle 24)] | 55.8 nM | 105 nM | 165 nM | 93.2 nM | 93.7 nM
